Test results: patent publication US20180072806A1 (SHIRE HUMAN GENETIC THERAPIES, published 2018)
Changes are numbered by the printed parent chain. Blank lines part the entries; values can stand above or below the binder they belong to.

Legend:
[1] = biological target: T1, recombinant human soluble Flt-1 (human, UniProt P17948 27-758); test: human competition ELISA with human sFlt-1 and VEGF; blocked ligand VEGF; antibody titrated
T1 construct: Recombinant soluble form (immunogen bought from ABCAM); also called human sFlt-1; sFlt-1

[2] = biological target: T1, recombinant human soluble Flt-1; test: VEGF:sFlt1 binding assay (competition ELISA); blocked ligand VEGF; antibody titrated

T1 sequence (P17948 27-758 limits assumed): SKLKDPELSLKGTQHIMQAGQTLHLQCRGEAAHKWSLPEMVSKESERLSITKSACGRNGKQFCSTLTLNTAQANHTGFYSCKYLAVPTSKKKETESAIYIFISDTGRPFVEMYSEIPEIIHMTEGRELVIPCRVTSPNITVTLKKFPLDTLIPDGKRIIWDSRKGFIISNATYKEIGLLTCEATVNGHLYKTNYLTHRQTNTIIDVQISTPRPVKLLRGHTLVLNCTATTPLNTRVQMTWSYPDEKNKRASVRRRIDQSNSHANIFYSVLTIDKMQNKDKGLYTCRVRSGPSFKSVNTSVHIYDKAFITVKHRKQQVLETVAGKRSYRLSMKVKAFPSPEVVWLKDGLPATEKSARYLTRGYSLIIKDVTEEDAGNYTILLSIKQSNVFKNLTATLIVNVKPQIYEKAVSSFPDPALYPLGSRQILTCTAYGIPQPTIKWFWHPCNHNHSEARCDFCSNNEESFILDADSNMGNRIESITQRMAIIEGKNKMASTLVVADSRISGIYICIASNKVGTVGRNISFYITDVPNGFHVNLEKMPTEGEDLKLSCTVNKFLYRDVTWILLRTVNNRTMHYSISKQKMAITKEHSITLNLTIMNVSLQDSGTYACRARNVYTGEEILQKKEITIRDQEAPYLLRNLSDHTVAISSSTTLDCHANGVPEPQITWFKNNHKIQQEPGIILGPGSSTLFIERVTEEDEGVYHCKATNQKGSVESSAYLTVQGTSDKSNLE

IC50 (read off the curve) [1]: ~3 ng/mL
B1: anti-Flt-1 antibody 21B3 (antibody, V domains shown)
VH: ELQLVESGGGLVQPGGSLRLSCAASGFTFRDYSMSWVRQAPGKGLEWVSAISWNGDSTYYAESMKGRFTISRDNAKNTLYLQMNSLKSEDTAVYYCAKSWATPIESLYYYGMDYWGKGTLVTVSS
VL: SYELTQSPSVSVALRQTAKITCGGNNIGSQTAQWYQQKPGQAPVLVIYANNRRPSGIPERFSGSKSGNTATLTISGAQAEDEADYYCQVWDGSTQAIVFGGGTHLTVL
notes: VL is LC_21B3; IgG with wild-type Fc; also called 21B3 WT; clone 21B3

IC50 (read off the curve) [2]: ~0.01 µg/mL
B2: anti-Flt-1 antibody 27H9 (antibody, human IgG1, lambda, V domains shown)
VH: B1 VH with L2V, V5L, M64A, A75S, K87R, S88A, M112S, K117Q
VL: SYELTQPLSVSVALRQTARITCGGNNIGSQTAQWYQQKPGQAPVLVIYANNRRPSGIPERFSGSKSGNTATLTISRAQAEDEADYYCQVWDESTQAIVFGGGTKLTVLG
notes: also called 27H9 WT; 27H9 WT 23/07

IC50 (read off the curve) [2]: ~0.006 µg/mL
B3: anti-Flt-1 antibody 27H6 (antibody, human IgG1, lambda, V domains shown)
VH: B1 VH with R30S, M34A, N54S, M64V, S71F, A75S, K87R, S88A, M112S, K117Q
VL: B2 VL with T17A, R19K, E80G, E92G

IC50 (read off the curve) [2]: ~0.01 µg/mL
B4: anti-Flt-1 antibody 27H4 (antibody, human IgG1, lambda, V domains shown)
VH: B1 VH with M64L, K87R, S88A, M112S, K117Q
VL: B2 VL with R15G, D91E, E92D
